Measurements taken from IntAct's records for PubMed 23213219.

B1: UL37 immediate early glycoprotein (Human cytomegalovirus (strain AD169) (HHV-5)), P16778 (parent)
chain: MSPVYVNLLGSVGLLAFWYFSYRWIQRKRLEDPLPPWLRKKKACALTRRSRHRLRRQHGVIDGENSETERSVDLVAALLAEAGEESVTEDTEREDTEEEREDEEEENEARTPEVNPIDAEGLSGLAREACEALKKALRRHRFLWQRRQRARMLQHNGPQQSHHAAVFCRVHGLRGFQVSVWLLLTLLWSTGHGVSVRCTYHGTDVNRTSNTTSMNCHLNCTRNHTQIYNGPCLGTEARLPLNVTFNQSRRKWHSVMLKFGFQYHLEGWFPLRVLNESREINVTEVHGEVACFRNDTNVTVGQLTLNFTGHSYVLRAIAHTSPFESYVRWEETNVTDNATSSENTTTVMSTLTKYAESDYIFLQDMCPRFLKRTVKLTRNKTKHNVTVTGNNMTTLPVWTPECKGWTYWTTLSVMWRNRRSALLRAKSRALGHWALLSICTVAAGSIALLSLFCILLIGLRRDLLEDFRYICRDEGSSSTKNDVHRIV

Variants of: B1
Details: with bax_human BAX

L143A was tested. Which “effect of a mutation on the interaction” value did it give?
The value was “decreasing interaction strength”.

R139E was tested. Which “effect of a mutation on the interaction” value did it give?
Its value is “decreasing interaction strength”.

How did the “effect of a mutation on the interaction” value turn out when R146E was run?
The value was “decreasing interaction strength”.
